Reference: patent US9205136B2, “Human aminoacyl-tRNA synthetase polypeptides useful for the regulation of angiogenesis” (THE SCRIPPS RESEARCH INSTITUTE, priority 2000, dated 2015)

B1: mini TyrRS mutant: mini TyrRS in which the ELR motif was mutated to ELQ (Glu-Leu-Gln) (protein)
chain: MGDAPSPEEKLHLITRNLQEVLGEEKLKEILKERELKIYWGTATTGKPHVAYFVPMSKIADFLKAGCEVTILFADLHAYLDNMKAPWELLELQVSYYENVIKAMLESIGVPLEKLKFIKGTDYQLSKEYTLDVYRLSSVVTQHDSKKAGAEVVKQVEHPLLSGLLYPGLQALDEEYLKVDAQFGGIDQRKIFTFAEKYLPALGYSKRVHLMNPMVPGLTGSKMSSSEEESKIDLLDRKEDVKKKLKKAFCEPGNVENNGVLSFIKHVLFPLKSEFVILRDEKWGGNKTYTAYVDLEKDFAAEVVHPGDLKNSVEVALNKLLDPIREKFNTPALKKLASAAYPDPSKQKPMAKGPAKNSEPEEVILEHHHHHH
modifications: His6 tag; Human mini TyrRS mutant in pET20B

Key:
PMNs [1] = settings: Kao et al., 1994; cited from earlier work
MPs = settings: Kao et al., 1994; cited from earlier work
[2] = tested on: human umbilical vein endothelial cells (HUVECs); assay: HUVEC migration assay (modified Boyden chamber); format: cell-based; settings: 50 nM TyrRS molecule or 0.5 nM VEGF165, 6 hours
Method: In contrast, α-chemokines lacking the ELR motif act as angiostatic factors (id.). In order to evaluate the angiogenic activity of TyrRS, which contains the ELR motif, human full-length TyrRS and human mini TyrRS were first examined for their ability to induce endothelial cell migration. Such angiogenic assays were performed using human umbilical vein endothelial cells (HUVECs) (Clonetics, Walkersville, Md.). Cells were maintained in EGM-2® BULLETKIT® medium (Clonetics) in an atmosphere of 6% CO2 at 37° C. according to the supplier's instructions.
Cell migration assays were performed using the modified Boyden chamber (6.5 mm Transwells) with polycarbonate membranes (8.0 μm pore size) (Costar Corp., Cambridge, Mass.) (Masood et al., 1999, Blood 93:1038-44). Wells were coated overnight with 25 μg/mL human fibronectin (Biosource International, Camarillo, Calif.) in PBS and then allowed to air-dry. HUVECs were suspended in Dulbecco's modified Eagle's medium (DMEM) (Gibco-BRL, Gaithersburg, Md.) containing 0.1% BSA (Sigma) and 2×10^5 cells per well were added to the upper chamber. The chemotactic stimulus (50 nM of a given TyrRS molecule or 0.5 nM of human vascular endothelial growth factor-165 (VEGF165) (Biosource International, Camarillo, Calif.)) was placed in the lower chamber, and the cells were allowed to migrate for 6 hours at 37° C. in a 6% CO2 incubator. After incubation, non-migrant cells were removed from the upper face of the Transwell membrane with a cotton swab and migrant cells, those attached to the lower face, were fixed in methanol and visualized with the HEMACOLOR® stain set (EM Diagnostic Systems, Gibbstown, N.J.). Migrating cells were counted in high-power fields (HPFs). HUVECs were suspended in media with the inhibitor for 30 minutes before placement in the chamber. Each determination shown in FIG. 16 represents the average of nine HPF measurements.

PMNs [3] = assay: PMN chemotaxis assay (ChemoTX microchemotaxis chamber); format: cell-based, human; settings: sample proteins 1 nM, 45 min
Method: Cells for the various cytokine assays described were prepared from acid citrate dextrose-treated blood of normal healthy volunteers. Human PMNs were isolated from the blood by centrifugation (700×g) over Histopaque 1077 and 1119 (Sigma). […] This procedure was repeated twice. Human MPs were isolated by centrifugation on Histopaque 1077 (Sigma). The mononuclear fraction was obtained, washed twice in Hanks' balanced salt solution, resuspended in RPMI-1640 medium (Sigma) containing 10% heat-inactivated fetal bovine serum (Sigma), plated in tissue culture flasks, and incubated in a 6% CO2 incubator at 37° C. for 1-2 hours (Kumagai et al., 1979, J. Immunol. Methods 29:17-25). Nonadherent cells were removed by washing the flasks three times with Hanks' balanced salt solution, and adherent cells were harvested by incubation with calcium-magnesium free phosphate-buffered saline containing 2 mM EDTA for 15 minutes at 4° C., followed by extensive washing.
PMN chemotaxis assays were performed in a ChemoTX microchemotaxis chamber (described herein). Sample proteins (1 nM) were added to the lower compartment of chemotaxis chambers, and 10^4 PMNs were added to the upper compartment. Chambers were incubated for 45 min, and migrating cells were counted in HPFs. Each determination shown in FIG. 2 represents the average of nine HPF measurements.

[4] = tested on: chick chorioallantoic membrane (CAM); assay: In vivo angiogenesis assay in chick chorioallantoic membrane (CAM); settings: 250 ng TyrRS molecule or 25 ng VEGF165 on filter disk, 72 hours
Method: In vivo angiogenesis assays were conducted in chick chorioallantoic membrane (CAM) (Nicolaou et al., 1998, Bioorg. Med. Chem. 6:1185-208). Ten-day-old chick embryos were purchased from Mcintyre Poultry (Lakeside, Calif.) and were incubated at 37° C. and 70% humidity. A small hole was made with a small crafts drill (Dremel, Emerson Electric, Racine, Wis.) directly over the air sac at the end of the egg. The embryos were candled to determine a location to drill a second hole directly over embryonic blood vessels. […] A window was cut in the eggshell over the dropped CAM, exposing the CAM to direct access for experimental manipulation. Cortisone acetate-treated 5 mm filter disks were soaked with a particular protein sample (25 ng of VEGF165 or 250 ng of a given TyrRS molecule) and the filter disks added directly to the CAMs, which were relatively devoid of preexisting blood vessels. The windows were sealed with sterile tape and incubated at 37° C. […] After 72 hours, the CAM tissue associated with the filter disk was harvested and quantified using a stereomicroscope. Angiogenesis was assessed as the number of visible blood vessel branch points within the defined area of the filter disks. Each determination shown in FIG. 17 represents the mean from 5-8 embryos.

PMNs [5] = assay: 125I-human mini TyrRS binding and competition assay on PMNs; settings: 10 nM 125I-mini TyrRS, 200-fold molar excess of unlabeled ligand, on ice 2 hours
Method: The interaction of human mini TyrRS and PMNs was examined in binding studies using radioiodinated TyrRS molecules (Moser et al., 1993, J. Biol. Chem. 268:7125-28). Custom radioiodination of mini TyrRS with was performed by Research & Diagnostic Antibody (Richmond, Calif.). In the binding assays, 2×10^6 PMNs were first suspended in 120 μl of RPMI-1640 medium containing 20 mM Hepes (pH 7.4) and 10 mg/ml bovine serum albumin. […] Following incubation, cells were separated from unbound radioactivity by centrifugation at approximately 8000×g for 2 minutes through 500 μL, of a 10% sucrose/phosphate-buffered saline (PBS) cushion. The supernatant was aspirated, and the cell sediment was resuspended using EcoLite (ICN Biomedicals, Irvine, Calif.) and analyzed in a scintillation counter.
Following incubation, cells were separated from unbound radioactivity as described herein.

Row | Molecule | PMN migration induced by synthetic peptide (literature) (PMNs [1]) | MP migration induced by synthetic peptide (literature) (MPs) | HUVEC chemotaxis [2] | PMN chemotaxis (PMN migration) (PMNs [3]) | in vivo angiogenesis in chick CAM (blood vessel branch points) [4] | inhibition of 125I-mini TyrRS binding to PMNs by unlabeled ligand (PMNs [5])
1 | R-I-G-R-I-I-T (RIGRIIT; listed as Homo sapiens) [synthetic peptide of seven residues near the amino-terminus of human mature EMAP II, Cys replaced by Arg] | can induce PMN or MP migration | can induce PMN or MP migration |  |  |  | 
2 | B1 |  |  | no chemotaxis was observed | did not induce PMN migration | failed to induce in vivo angiogenesis | did not inhibit the binding
